In publication PMC8203498:

Target: recombinant human protease-activated receptor 1 with GST tag (GST-PAR1) (human) (UniProt P25116)
Assay: SPR; BIAcore X100; GST-PAR1 (10 ug/mL) captured on anti-GST antibody immobilised on a CM5 chip (about 854 RU); running buffer 50 mM Hepes pH 7.0, 0.01% CHS, 0.1% CHAPS, 0.33 mM DOPC:DOPS; captured GST as blank; analytes injected at 125 to 1000 nM, 30 uL/min; single site model

GARASVLSGGELDRWEKIRL [F1 peptide (p17 N-terminal sequence, aa 2 to 21)]
Kd: 46 nM
